From article PMC4838342 (Nucleic Acids Research, 2015)

B1: Sim3 (as used in gel filtration) (natural protein, Schizosaccharomyces pombe, UniProt Q9USQ4 1-396, looked up)
chain: MSSDTKTLENSKGNSATDADTKNPSSSDSRAIEQLVTQGNMAYAQKNYEEAVDKYGQALMQSESIHGSESLENRNVLWLYGKSLFQIAIENSQVLGNALGAKESVSQATESFEEPEAIGSFTFSGQKIENKYTVNEENSSIAHPEKESEEKETNEASPASEEDEDDFNVAWEVLDLTRVMQSKAVDAYPDSKDEKIRLADIYDLLGELSLEIENFSQASQDLKTALEWKEKVYNVSNNTLLSEAHYKLALALEFTNPEDPSNKSRACEHVEKAAEILKNVLNERENEVTDKKGKGKQKAEESTLTSDLENLREMLSELEQKTLDLKHGAPSLEEAVMSKMHESSLLSKDSSSLAQAVAEAVKNANDLGGLVKRKRTKQEVTSSSQKEGPKDKKKKD
notes: source: bacteria, purified
B2: sNASP (41–330, Δ101–159) (domain or fragment)
chain: SEAKKLLGLGQKHLVMGDIPAAVNAFQEAASLLGKKYGETANECGEAFFFYGKSLLELARLENKSLQENEEEEIGNLELAWDMLDLAKIIFKRQETKEAQLYAAQAHLKLGEVSVESENYVQAVEEFQSCLNLQEQYLEAHDRLLAETHYQLGLAYGYNSQYDEAVAQFSKSIEVIENRMAVLNEQVKEAEGSSAEYKKEIEELKELLPEIREKIEDAKESQRSGNVAELA
modifications: 15N (and 13C, 2H) isotope labelled

What was measured:
MBP H3 116–135 = MBP H3 116–135 (human); assay: SEC; analytical gel filtration, Superdex S200 10/300 GL, 20 mM Hepes-KOH pH 7.5, 200 mM sodium chloride; fractions on SDS-PAGE, Coomassie; details: both partners purified
H3 115–135 peptide = assay: NMR titration; 1H-15N HSQC of 15N-labelled sNASP (41–330, Δ101–159) titrated with H3 115–135 peptide in PBS; 298 K; assignments in 20 mM NaPO4 pH 7.0, 100 mM NaCl, 5 mM β-mercaptoethanol; details: both partners purified
Sequence of H3 115–135 peptide (peptide, as listed by the source): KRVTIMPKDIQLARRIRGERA

Binder | binding result (MBP H3 116–135) | binding result (H3 115–135 peptide)
B1 | binds | 
B2 |  | binds
